From the supplement of paper PMC9170038

Tested on: MS2 coat protein
Experiment: apparent KD of MS2 coat protein; designed switch direction (-1 OFF switch, 1 ON switch): 1; higher = weaker reporter binding
Summary of the method: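 Each step of the titration lasted 0.8–1.5 h at the lowest concentration and 10–20 min at the highest. The protein, SNAP-549-labelled MS2 coat protein, went from 0.7 or 1.5 nM doubling to 3 µM over RNA switches transcribed on Illumina chips by stalled E. coli RNA polymerase. Normalised cluster fluorescence was curve-fitted, and the per-design median over clusters is given as apparent KD.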

[1] = input ligand: microRNA oligo, concentration not stated
[2] = Eterna round: R95, input ligand: FMN 200 uM
[3] = Eterna round: R95, input ligand: microRNA oligo, concentration not stated
[4] = Eterna round: R95, input ligand: none

Sequence	apparent KD of MS2 coat protein (input ligand: FMN 200 uM)	apparent KD of MS2 coat protein [1]	apparent KD of MS2 coat protein (input ligand: none)	apparent KD of MS2 coat protein [2]	apparent KD of MS2 coat protein [3]	apparent KD of MS2 coat protein [4]
GGUGUACAUGAGGAUCACCCAUGUCGACCGCUCACAGGAUAUUUAAUACAAACUGGUAGCGGAGAAGGGUGAGGAA [Oresbeve] (Eterna round: R96, puzzle: Same State 1)	0.523 µM	0.16 µM	0.188 µM	–	–	–
GGUGUACAUGAGGAUCACCCAUGUCGACCGCUCACAGGAUAUUUAAUACAAACUGGUAGCGGAGAAGGGUGAGGAA [Oresbeve] (puzzle: Same State 1)	–	–	–	0.164 µM	0.0957 µM	0.247 µM
GUACAGAUCAGAGGAUAUCACGUCGUUUAGACGUGAGAAGGCUGAUCACACAUGAAUAUUAGUACAUGAGGAUCACCCAUGUAC [SSNG1/15-A3] (Eterna round: R96, puzzle: Same State NG 1)	0.0137 µM	0.0134 µM	0.0175 µM	–	–	–
GUACAUAUCAGAGGAUAUCACGUCGAAUAGACGUGAGAAGGCUGAUCACACAUGAAUAUUAAUACAUGAGGAUCACCCAUGUAC [SSNG1/13-A1] (Eterna round: R96, puzzle: Same State NG 1)	0.0169 µM	0.0245 µM	0.0312 µM	–	–	–
GUAGCAUACCGAGGAUAUUCAUAUAACAUGAGGAUCACCCAUGUAAGGCCACAUUAGUGGCCUUGGGAGAAGGCGGAAUGCUAC [Xeonanis - 20 Mod41] (Eterna round: R96, puzzle: Same State NG 2)	0.0117 µM	0.0635 µM	0.0771 µM	–	–	–
GUAGCAUACCGAGGAUAUUCAUAUAAUAAAUAACAUGAGGAUCACCCAUGUUGGCGAAAGCCUUGGGAGAAGGCGGAAUGCUAC [Xeonanis - 20 Mod56] (Eterna round: R96, puzzle: Same State NG 2)	0.0135 µM	0.0458 µM	0.0555 µM	–	–	–
GUAGCAUACCGAGGAUAUUCAUAUACAUGAGGAUCACCCAUGUUGGCCAGCAUUAGCUGGCCUUGGGAGAAGGCGGAAUGCUAC [Xeonanis - 20 Mod50] (Eterna round: R96, puzzle: Same State NG 2)	0.0189 µM	0.0794 µM	0.141 µM	–	–	–
GUAGCAUACCGAGGAUAUUCAUAUUAUAACAUGAGGAUCACCCAUGUUGGCCGAUUACGGCCUUGGGAGAAGGCGGAAUGCUAC [Xeonanis - 20 Mod18] (Eterna round: R96, puzzle: Same State NG 2)	0.0158 µM	0.0741 µM	0.0843 µM	–	–	–
GUAGCAUACCGAGGAUAUUCAUAUUAUACAUGAGGAUCACCCAUGUAAGGCCGAUUACGGCCUUGGGAGAAGGCGGAAUGCUAC [Xeonanis - 20 Mod21] (Eterna round: R96, puzzle: Same State NG 2)	0.0189 µM	0.0682 µM	0.105 µM	–	–	–
GUCGGGCAAGCUUUUUUCUCGUAGUGUAAACAUGAGGAUCACCCAUGUGCUCGCCCUGGAUCUUUGGAUCGCAGAAA [Isxevevere] (puzzle: Sensor for hsa-mir-208a)	–	–	–	0.0575 µM	0.0349 µM	0.0645 µM
GUGGAGGGUUAAGGAUAUUGAAUACAUAUGUUUAACAUGAGGAUCACCCAUGUGGGUUGCGGUAUCGAGAAGGUAAAUUACUGG [salish99_SSNG2_r04_035] (Eterna round: R96, puzzle: Same State NG 2)	0.192 µM	0.151 µM	0.133 µM	–	–	–
GUGGAGGGUUGAGGAUAUUGAAUACAUAUGUUUAACAUGAGGAUCACCCAUGUGGGUUGCGGUUUCGAGAAGGUAGGUUGCUGG [salish99_SSNG2_r04_040] (Eterna round: R96, puzzle: Same State NG 2)	0.103 µM	0.072 µM	0.111 µM	–	–	–
GUGGCCCAGGCACAGGAUAUGUUUCUCGUAACAUGAGGAUCACCCAUGUGCCUAUGAGAUUUAAUGCAGAAGGGUGCACGCCACG [Atiinbe] (Eterna round: R96, puzzle: Same State 2)	0.0182 µM	0.0613 µM	0.103 µM	–	–	–
GUGGCGGGUUGAGGAUAUUGGUUGCCUAUGUUUAACAUGAGGAUCACCCAUGUGGGUUGCGGUUUCGAGAAGGUAGGUUGCUGG [salish99_SSNG2_r04_046] (Eterna round: R96, puzzle: Same State NG 2)	0.228 µM	0.109 µM	0.188 µM	–	–	–
GUGGGACAUGAGGAUCACCCAUGUGGGAGGGAACGAGGAUAUGUGAGGAGCGAGAAGUGAACAGAAGGCGUGGUUG [JR_SS1_Sub023] (puzzle: Same State 1)	–	–	–	–	0.0753 µM	–
GUGGUCAGACAUGAGGAUCACCCAUGUGGAAUAAAUAACACACAGGAUAUCUAAUAUAAAAUAUAAGAGAAGGGUGGAUUGGUG (Eterna round: R96, puzzle: Same State NG 3)	–	0.202 µM	–	–	–	–
GUGGUCAGACAUGAGGAUCACCCAUGUGGAAUAAAUAACACACAGGAUAUGUAAUAUAGGAUAUAACAGAAGGGUGGAUUGGUG (Eterna round: R96, puzzle: Same State NG 3)	–	0.297 µM	–	–	–	–
GUGGUCAGACAUGAGGAUCACCCAUGUGGAAUAAAUAACGUCAAGGAUAUACAAUAUAGGAUAUAGUAGAAGGUGAGAUUGGUG (Eterna round: R96, puzzle: Same State NG 3)	–	0.0948 µM	–	–	–	–
GUGGUCAGACAUGAGGAUCACCCAUGUGGAAUAAAUAAGGAAAAGGAUAUUCAAUAUAGGAUAUAGAAGAAGGUUUGGUUGGUG (Eterna round: R96, puzzle: Same State NG 3)	–	0.0735 µM	–	–	–	–
GUGGUCAGACAUGAGGAUCACCCAUGUGGAAUAAAUAAGGAGAAGGAUAUCUAAUAUAGGAUAUAAGAGAAGGUUUGGUUGGUG (Eterna round: R96, puzzle: Same State NG 3)	–	0.0632 µM	–	–	–	–
GUGGUCAGACAUGAGGAUCACCCAUGUGGAAUAAAUAAGGAGAAGGAUAUGAAAUAUAGGAUAUAUCAGAAGGUCUGGUUGGUG (Eterna round: R96, puzzle: Same State NG 3)	–	0.0599 µM	–	–	–	–
GUGGUCAGACAUGAGGAUCACCCAUGUGGAAUAAAUAAGGAGAAGGAUAUGCAAUAUAGGAUAUAGCAGAAGGUCUGGUUGGUG (Eterna round: R96, puzzle: Same State NG 3)	–	0.0585 µM	–	–	–	–
GUGUAUAGCCUCGAGGAUAUCCUGUAAUGCACAUGAGGAUCACCCAUGUAUGAGCGAGUUUUUUGGGAGAAGGCGAGUUAUCGGU [JR_SS002_Sub1709] (Eterna round: R96, puzzle: Same State 2)	–	0.018 µM	–	–	–	–
GUGUGUUGCGGGCAGGAUAUGUACUUGAGUACAUGAGGAUCACCCAUGUGCGCCUGUUUCAGGCGACAGAAGGGCCUAUCGCGAC [JL-ss2-3.26 ViennaUCT mod] (puzzle: Same State 2)	–	–	–	0.121 µM	0.318 µM	1.34 µM
GUUAAACAUGAGGAUCACCCAUGUAAUAAUAUGGGAGGAUAUCAGAAAUUAUGUAUGAAAUGAGAAGGCCUAAUUG [Mat - Same State 1 - Mod of Eli - D79] (puzzle: Same State 1)	–	–	–	0.0898 µM	0.244 µM	0.198 µM
GUUAAACAUGAGGAUCACCCAUGUCAUCUAAGUCGAGGAUAUGGGAAUUAAUUAAUUAAACCAGAAGGCGAAAAUU [Mat - Same State 1 - D95] (puzzle: Same State 1)	–	–	–	0.0597 µM	0.756 µM	1.11 µM
GUUAACUUGAGAGGAUAUGUAGAGGAUCACCCUACAGAAGGCUCUUUGGAGAGGAUAUGUAGAGGAUCACCCUACAGAAGGCUC [pwkr ssNG DX.6] (Eterna round: R96, puzzle: Same State NG 1)	0.0565 µM	0.0337 µM	0.0259 µM	–	–	–
GUUACAUGAGGAUCACCCAUGUAUGUGUGGGAGUAAGUGUCUUAGGAUAUCUAGUAUUUAAUUCAAGAGAAGGAAGAUUGUUGU [JMF's solution 68] (Eterna round: R96, puzzle: Same State NG 3)	0.119 µM	0.132 µM	0.122 µM	–	–	–
GUUACAUGAGGAUCACCCAUGUAUGUGUGGGAGUAAGUGUCUUAGGAUAUCUAGUAUUUGAUUUAAGAGAAGGAAGAUUGUUGU [JMF's solution 60] (Eterna round: R96, puzzle: Same State NG 3)	0.121 µM	0.0754 µM	0.11 µM	–	–	–
GUUACAUGAGGAUCACCCAUGUAUGUGUGGGAGUAAGUGUCUUAGGAUAUCUAGUUUUUAAUUUAAGAGAAGGAAGAUUGUUGU [JMF's solution 52] (Eterna round: R96, puzzle: Same State NG 3)	0.151 µM	0.0672 µM	0.114 µM	–	–	–
